From publication PMC9741652, “CRL2^ZER1/ZYG11B recognizes small N-terminal residues for degradation” (Nature Communications, 2022)
Values belong to the binder of their own block, whether it stands above or below them.

What was measured:
[1] = biological target: T1, GST-fused ZER1 (residues 469–766) (human, UniProt Q7Z7L7 469-766); test: peptide or protein array; peptide SPOT array on cellulose membrane; purified GST-tagged ZER1 (50 nM) or ZYG11B (230 nM) in 10% glycerol, 0.1 M KCl, 1 mM EDTA, 20 mM HEPES pH 7.5, 1 h at room temperature; detected with anti-GST by chemiluminescence; details: both partners purified
T1 construct: ZER1, human, residues 469-766; Vector pACYC-GST is Addgene Plasmid #62329; also called GST-tagged ZER1_(469–766); source: purified; cloned into pACYC-GST

[2] = biological target: T2, GST-fused ZYG11B (residues 490–744) (UniProt Q9C0D3 490-744); test: as above; details: both partners purified
T2 construct: ZYG11B, residues 490-744; Vector pACYC-GST is Addgene Plasmid #62329; also called GST-tagged ZYG11B_(490–744); source: purified; cloned into pACYC-GST
T2 sequence (Q9C0D3 490-744): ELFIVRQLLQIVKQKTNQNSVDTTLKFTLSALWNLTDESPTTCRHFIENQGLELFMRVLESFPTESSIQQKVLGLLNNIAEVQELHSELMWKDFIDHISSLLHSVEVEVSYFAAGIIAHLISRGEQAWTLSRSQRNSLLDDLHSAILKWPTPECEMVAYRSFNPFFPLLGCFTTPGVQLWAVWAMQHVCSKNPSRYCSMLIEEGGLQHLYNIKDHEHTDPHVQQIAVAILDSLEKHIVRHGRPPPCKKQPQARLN

T1 sequence (Q7Z7L7 469-766): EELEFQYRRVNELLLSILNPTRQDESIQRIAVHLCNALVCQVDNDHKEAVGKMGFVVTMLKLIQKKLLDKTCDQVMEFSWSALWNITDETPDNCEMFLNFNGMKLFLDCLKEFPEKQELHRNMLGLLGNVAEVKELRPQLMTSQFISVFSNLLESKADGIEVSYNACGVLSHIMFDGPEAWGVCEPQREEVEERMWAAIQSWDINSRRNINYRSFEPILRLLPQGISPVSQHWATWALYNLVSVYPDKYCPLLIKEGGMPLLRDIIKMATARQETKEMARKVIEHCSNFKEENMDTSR

binding result [1]: binds
B1: TFLHVGQDGLELPTS peptide (15-mer, position 1 Thr) (peptide)
peptide: TFLHVGQDGLELPTS
notes: numbers count on: the peptide; Spot on a cellulose membrane; also called Nt-Thr (SPOT array); source: synthetic peptide, synthesized on cellulose membrane (SPOT array)

binding result [2]: binds
binding result [1]: binds
B2: AFLHVGQDGLELPTS peptide (15-mer, position 1 Ala) (peptide)
peptide: AFLHVGQDGLELPTS
notes: numbers count on: the peptide; Spot on a cellulose membrane; also called Nt-Ala (SPOT array); source: synthetic peptide, synthesized on cellulose membrane (SPOT array)

binding result [2]: binds
binding result [1]: binds
B3: SFLHVGQDGLELPTS peptide (15-mer, position 1 Ser) (peptide)
peptide: SFLHVGQDGLELPTS
notes: numbers count on: the peptide; Spot on a cellulose membrane; also called Nt-Ser (SPOT array); source: synthetic peptide, synthesized on cellulose membrane (SPOT array)

binding result [2]: binds
B4: GFLHVGQDGLELPTS peptide (15-mer from the N-terminus of ZNF701) (peptide)
peptide: GFLHVGQDGLELPTS
notes: 15-mer derived from the N-terminus of ZNF701; Spot on a cellulose membrane; also called Nt-Gly (SPOT array); source: synthetic peptide, synthesized on cellulose membrane (SPOT array)
